Source: article PMC9170038
Each block holds one molecule with its values, some of them ahead of it.

What was measured:
[1] = system: BH_E029 (RNA, aptamer) GGGAGAGUGGCAGCUUACAACGUAACGAUGCGGCCGCCACUGAUCCGACUGGUUAACAGAAAGUCCUGACCAGGUAACGAAUGGUCAGGACCGGGCAUUGUUACGAAGUGGGCUGUUGCUUUUCC; test: light-up fluorescence kinetics; details: 5 mM MgCl2, 1x PBS, pH 6.1, with tryptophan (ON state)
[2] = system: Tetracycline aptamer, RNA-MaP condition construct (RNA, aptamer) GGAAAGGCGCUAAAACAUACCAGUUCGCUGGAGAGGUGAAGAAUACGACCACCUAGCGCCAAAGAAACAACAACAACAAC; test: 1M7 chemical mapping; details: 80 mM KCl, 4 mM MgCl2; 100 mM Tris-HCl, pH 7.5, 37 °C
[3] = system: Tetracycline aptamer, Light-up construct (RNA, aptamer) GGGAACGUCUCCGAGUAGGAGACGAAGGGAGAGUGGCAGCUUACAACGCUAAAACAUACCUGCACCACCGACCUUGAAAACAAGGGUAACGAAUGUGGAGCAGGAGAGGUGAAGAAUACGACCACCUAGCGAAGUGGGCUGUUGCUUUUCCAAGCUUAUCGAGUAGAUAAGCAAAAAGAAACAACAACAACAAC; test: DMS chemical mapping; details: 5 mM MgCl2, 1x PBS, pH 6.1, 24 °C
[4] = system: FMN aptamer, RNA-MaP condition construct (RNA, aptamer) GGAAAGGCGUGUAGGAUAUGCUUCGGCAGAAGGACACGCCAAAGAAACAACAACAACAAC; test: 1M7 chemical mapping; details: 80 mM KCl, 4 mM MgCl2; 100 mM Tris-HCl, pH 7.5, 37 °C
[5] = system: FMN aptamer, Light-up construct (RNA, aptamer) GGGAACGUCUCCGAGUAGGAGACGAAGGGAGAGUGGCAGCUUACAAUUCCAGCCGACCACUGAAAUACUCUAGAGGAUAUGACAGACAAAGUCUGUCAGAAGGCUAGAGCAGUGGGUAACGAAUGCUGGAAAAGUGGGCUGUUGCUUUUCCAAGCUUAUCGAGUAGAUAAGCAAAAAGAAACAACAACAACAAC; test: DMS chemical mapping; details: 5 mM MgCl2, 1x PBS, pH 6.1, 24 °C
[6] = system: BC_JL-sng2-3.09 (RNA, aptamer) GGGUAUGUCGCAGAAGUAGCUAUCGGAGGAUAUUCAUACCGGAAACGGACAUGAGGAUCACCCAUGUGGCGAAAGCCUUGGGAGAAGGCUGAUAGCUACAACUGCGACAUACCCAAAAAAAAAAAAAAAAAAAAAAAAA; test: flow cytometry of RNA beads with MS2 protein; DMS chemical mapping; details: RNA immobilised on beads; reversible over 80 FMN buffer exchanges
[7] = biological target: T1, MS2 coat protein, dlFG mutant (Escherichia phage MS2, UniProt P03612, del68-81insG); test: 4 mM Mg2+; no ligand; RNA-MaP array; 100 mM Tris-HCl pH 7.5, 80 mM KCl, 4 mM MgCl2, 0.1 mg/mL BSA, 1 mM DTT, 0.01 mg/mL yeast tRNA, 0.01% Tween-20; protein 1.5 nM to 3 uM; 37 C (Table S3); details: chain copies: 2; label: tethered by stalled RNA polymerase
[8] = biological target: T1, MS2 coat protein, dlFG mutant; test: 4 mM Mg2+; L-tryptophan 2.4 mM; RNA-MaP array; 100 mM Tris-HCl pH 7.5, 80 mM KCl, 4 mM MgCl2, 0.1 mg/mL BSA, 1 mM DTT, 0.01 mg/mL yeast tRNA, 0.01% Tween-20; protein 1.5 nM to 3 uM; 37 C (Table S3); details: chain copies: 2; label: tethered by stalled RNA polymerase
[9] = biological target: T1, MS2 coat protein, dlFG mutant; test: 4 mM Mg2+; FMN 200 uM; RNA-MaP array; 100 mM Tris-HCl pH 7.5, 80 mM KCl, 4 mM MgCl2, 0.1 mg/mL BSA, 1 mM DTT, 0.01 mg/mL yeast tRNA, 0.01% Tween-20; protein 1.5 nM to 3 uM; 37 C (Table S3); details: chain copies: 2; label: tethered by stalled RNA polymerase

- binding [1]: yes
Molecule: CN(C)c1ccc(C(=C2C=CC(=[N+](C)C)C=C2)c2ccccc2)cc1

- Kd [2]: 622.07 ± 132.12/-105.63 nM
- Kd [3]: 57.50 ± 22.58/-15.88 nM
Molecule: CN(C)[C@@H]1C(=O)C(C(N)=O)=C(O)[C@@]2(O)C(=O)C3=C(O)c4c(O)cccc4[C@@](C)(O)[C@H]3C[C@@H]12

- Kd [4]: 1.71 ± 0.60/-0.44 μM
- Kd [5]: 1.57 ± 0.58/-0.41 μM
- binding [6]: yes
Molecule: Cc1cc2nc3c(=O)[nH]c(=O)nc-3n(C[C@H](O)[C@H](O)[C@H](O)COP(=O)(O)O)c2cc1C

B1: Eterna 6121097 (Same State NG 1) (ssRNA)
RNA: CGCUGUCACGCAGGAUAUGCAUUGGAUUACAAUGCAGAAGGGCGAUUACAUGAGGAUCACCCAUGUGUCGACAGUGAAGAAGAG
- Kd [7]: 532 nM

B2: Eterna 7616241 (Exclusion - Tryptophan A) (ssRNA)
RNA: AAUGUAUGCCACAUGAGGAUCACCCAUGUGCGAGGACCGGUACGGCCGCCACUCGGUCGGUGGUUAAUGAAGAUAUACAAUAAUG
- Kd [8]: 15.5 nM

B3: Eterna 7752556 (Exclusion - Arginine B) (ssRNA)
RNA: UUAGUCUAGAGAAGGAGCGAGUGAUGUUCGCAUGCUAUGAUGAAUUCAUCAUAGUUUAAUCCUCAGGUAGGUCGCUCUAGACAUU
- Kd [7]: > 3000 nM

B4: Eterna 6391704 (Inverted Exclusion NG 3) (ssRNA)
RNA: AGCUGGUGACAGCAUCCAUCUUAACAUGAGGAUCACCCAUGUAGAAGGCUGUACGGUUACCGUACAGAGGAUAUACAUAGAUGG
- Kd [9]: 9.28 nM

B5: Eterna 7675419 (Same State - Tryptophan A) (ssRNA)
RNA: UUUAAACAUAGUGAUGUUAUGUAACAAUGACGAGGACCGGUACGGCCGCCACUCGAGAGAGAUGAUGGUAAAAUAAAUAAUUUUC
- Kd [7]: > 3000 nM

B6: Eterna 1206 (Exclusion - Tryptophan A) (ssRNA)
RNA: CUAUAGACCCUUCGGAUAGUGAUGUUGUCACGAGGACCGGUACGGCCGCCACUCGCUGCCACCAUACCGCUUCACGGAACGAGCA
- Kd [7]: > 3000 nM

B7: Eterna 7671436 (Same State - Theophylline A) (ssRNA)
RNA: UGGACCUGACUCGAUAAGAGUCAAGGAGAUACCAGCCACGAAAGUGGCCCUUGGCAGCUCUGCCAGUGAUGUUGGUCAAGGUCCU
- Kd [7]: > 3000 nM

B8: Eterna 7681146 (Same State - Arginine A) (ssRNA)
RNA: ACUGGGUUGACGAAAGUCAACAAAAGAGAAGGAGCGCACGAAAGUGCAGGUAGGUCGCUCAUCCAGUGAUGUUGGAUCAUCCAGA
- Kd [7]: > 3000 nM

B9: Eterna 1165 (Exclusion - Theophylline B) (ssRNA)
RNA: CCAAGCGUCAGCGAUACCAGAAUUCUAGUGAUGUUAGGUUCUGUCAUUGUACUAGCAGUGUUCCCUUGGCAGCGCGUGAUAGGCA
- Kd [7]: > 3000 nM

B10: Eterna 7726098 (Exclusion - FMN A) (ssRNA)
RNA: AAGUGAUGUUGUAGUGAUGUUGUGAUGUUGCAGGAUAUAUAGUGAUGUAGAAGGGUAAGUACUUAUUUUUUUUUUGAGUUAUGUU
- Kd [7]: > 3000 nM

B11: Eterna 7759081 (Exclusion - Theophylline A) (ssRNA)
RNA: AACUGUCAAGGACAACAUUACUGAGGUGAUACCAGCAUCGAAAGAUGCCCUUGGCAGCGCCAACUUGCAGUGAUGUUGCAAGUAA
- Kd [7]: > 3000 nM
